The text below walks through data of patent US20050158298A1.

Series [1] has as its target gliadin 33mer …. As to the kind of experiment: cell-based or functional assay.
Series [2] concerns gliadin 33mer LQLQPFPQPQLPYPQPQLPYPQPQLPYPQPQPF
In series [3] the target is T1, gliadin 33mer LQLQPFPQPQLPYPQPQLPYPQPQLPYPQPQPF
T1 chain: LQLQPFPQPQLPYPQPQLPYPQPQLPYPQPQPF

The target in series [4] is T2, gliadin 14mer PQPQLPYPQPQLPY
T2 chain: PQPQLPYPQPQLPY

Some results are limits rather than exact numbers.

In turn, Pronase returned a digestion of the peptide over 20 h, E/S=1/25 in series [1] below 40%.

With Chymotrypsin, in series [2], the “digestion of the peptide” value is on record as “Chymotrypsin alone or supplemented with ruLAP or DPPIV is not able to breakdown the peptide”.

B1: cytosolic leucine aminopeptidase from porcine kidney (Sigma) (protein)
chain: TKGLVLGIYSKEKEDDAPQFTSAGENFDKLVSGKLREILNISGPPLKAGKTRTFYGLHEDFSSVVVVGLGKKGAGVDDQENWHEGKENIRAAVAAGCRQIQDLEIPSVEVDPCGDAQAAAEGAVLGLYEYDELKQKKKVVVSAKLHGSGDQEAWQRGVLFASGQNLARHLMETPANEMTPTRFAEVIEKNLKSASSKTDVHIRPKSWIEEQEMGSFLSVAKGSEEPPVFLEIHYKGSPDASDPPLVFVGKGITFDSGGISIKASANMDLMRADMGGAATICSTIVSAAKLDLPINLVGLAPLCENMPSGKANKPGDVVRAKNGKTIQVDNTDAEGRLILADALCYAHTFNPKVIINAATLTGAMDIALGSGATGVFTNSSWLWNKLFEASIETGDRVWRMPLFEHYTKQIVDCQLADVNNIGKYRSAGACTAAAFLKEFVTHPKWAHLDIAGVMTNKDEVPYLRKGMAGRPTRTLIEFLLRFSQDSA
As for B1, in series [3], the “digestion of the peptide, RP-HPLC” value was “totally inactive towards the 33mer”.

B2: recombinant ruLAP2 produced in P. pastoris (protein)
chain: RLVGQEPFGWPFKPMVTQDDLQNKIKLKDIMAGVEKLQSFSDAHPEKNRVFGGNGHKDTVEWIYNEIKATGYYDVKKQEQVHLWSHAEAALNANGKDLKASAMSYSPPASKIMAELVVAKNNGCNATDYPANTQGKIVLVERGVCSFGEKSAQAGDAKAAGAIVYNNVPGSLAGTLGGLDKRHVPTAGLSQEDGKNLATLVASGKIDVTMNVISLFENRTTWNVIAETKGGDHNNVIMLGAHSDSVDAGPGINDNGSGSIGIMTVAKALTNFKLNNAVRFAWWTAEEFGLLGSTFYVNSLDDRELHKVKLYLNFDMIGSPNFANQIYDGDGSAYNMTGPAGSAEIEYLFEKFFDDQGIPHQPTAFTGRSDYSAFIKRNVPAGGLFTGAEVVKTPEQVKLFGGEAGVAYDKNYHRKGDTVANINKGAIFLNTRAIAYAIAEYARSLKGFPTRPKTGKRDVNPQYSKMPGGGCGHHTVFM
As to B2, the “removal of the N-terminal residue; mass loss by ESI-MS” value with Ala-proNPY was “the N-terminal alanine was almost totally removed (molecular mass loss of 71 amu) from proNPY”. The “removal of N-terminal residues; mass loss by ESI-MS” value in the series with Gly-Ser-proNPY is recorded as “cleavage of the two N-terminal residues Gly-Ser with a theoretical loss of 144.1 amu (found 144.2)”. The “digestion of the peptide, 37 C, 4 h, RP-HPLC and ESI-MS” value in series [4] was “the 14mer is not digested with ruLAP2 within 4 h”. Moreover, in series [3], the “degradation of the peptide within 4 h, RP-HPLC” value is listed as “partial degradation (less than 50%) of the peptide within 4 h”.

B3: microsomal leucine aminopeptidase from porcine kidney (Sigma) (protein)
chain: KPWNRYRLPTTLLPDSYNVTLRPYLTPNADGLYIFKGKSIVRLLCQEPTDVIIIHSKKLNYTTQGHMVVLRGVGDSQVPEIDRTELVELTEYLVVHLKGSLQPGHMYEMESEFQGELADDLAGFYRSEYMEGNVKKVLATTQMQSTDARKSFPCFDEPAMKATFNITLIHPNNLTALSNMPPKGSSTPLAEDPNWSVTEFETTPVMSTYLLAYIVSEFQSVNETAQNGVLIRIWARPNAIAEGHGMYALNVTGPILNFFANHYNTSYPLPKSDQIALPDFNAGAMENWGLVTYRENALLFDPQSSSISNKERVVTVIAHELAHQWFGNLVTLAWWNDLWLNEGFASYVEYLGADHAEPTWNLKDLIVPGDVYRVMAVDALASSHPLTTPAEEVNTPAQISEMFDSISYSKGASVIRMLSNFLTEDLFKEGLASYLHAFAYQNTTYLDLWEHLQKAVDAQTSIRLPDTVRAIMDRWTLQMGFPVITVDTKTGNISQKHFLLDSESNVTRSSAFDYLWIVPISSIKNGVMQDHYWLRDVSQAQNDLFKTASDDWVLLNVNVTGYFQVNYDEDNWRMIQHQLQTNLSVIPVINRAQVIYDSFNLATAHMVPVTLALDNTLFLNGEKEYMPWQAALSSLSYFSLMFDRSEVYGPMKKYLRKQVEPLFQHFETLTKNWTERPENLMDQYSEINAISTACSNGLPQCENLAKTLFDQWMSDPENNPIHPNLRSTIYCNAIAQGGQDQWDFAWGQLQQAQLVNEADKLRSALACSNEVWLLNRYLGYTLNPDLIRKQDATSTINSIASNVIGQPLAWDFVQSNWKKLFQDYGGGSFSFSNLIQGVTRRFSSEFELQQLEQFKKNNMDVGFGSGTRALEQALEKTKANIKWVKENKEVVLNWFIEHS
As to B3, in series [3], the “digestion of the peptide, RP-HPLC and ESI-MS” value was “results only in a partial deletion of N-terminal Leu and C-terminal Phe (due to a carboxypeptidasic contaminant)”.
